Assay results: publication PMC8993905, “Functional control of a 0.5 MDa TET aminopeptidase by a flexible loop revealed by MAS NMR” (Nature Communications, 2022)
Where a chain is given by its changes, count along the chain named. Names may count otherwise.

B1: TET2 (Pyrococcus horikoshii OT3) (protein)
chain: MEVRNMVDYELLKKVVEAPGVSGYEFLGIRDVVIEEIKDYVDEVKVDKLGNVIAHKKGEGPKVMIAAHMDQIGLMVTHIEKNGFLRVAPIGGVDPKTLIAQRFKVWIDKGKFIYGVGASVPPHIQKPEDRKKAPDWDQIFIDIGAESKEEAEDMGVKIGTVITWDGRLERLGKHRFVSIAFDDRIAVYTILEVAKQLKDAKADVYFVATVQEEVGLRGARTSAFGIEPDYGFAIDVTIAADIPGTPEHKQVTHLGKGTAIKIMDRSVICHPTIVRWLEELAKKHEIPYQLEILLGGGTDAGAIHLTKAGVPTGALSVPARYIHSNTEVVDERDVDATVELMTKALENIHELKI
notes: full length, 353 residues per subunit, pET41c in E. coli BL21(DE3), no tag mentioned (heat step, Resource Q, Superdex 200), 39 kDa subunit, 468 kDa homododecamer, two Zn per active site
B2: TET2 (Pyrococcus horikoshii OT3; H123K) (protein)
chain: B1 chain with H123K
notes: as for B1
B3: TET2 (Pyrococcus horikoshii OT3; H123F) (protein)
chain: B1 chain with H123F
notes: as for B1
B4: TET2 (Pyrococcus horikoshii OT3; H123Y) (protein)
chain: B1 chain with H123Y
notes: as for B1
B5: TET2 (Pyrococcus horikoshii OT3; DEL120-138) (protein)
chain: MEVRNMVDYELLKKVVEAPGVSGYEFLGIRDVVIEEIKDYVDEVKVDKLGNVIAHKKGEGPKVMIAAHMDQIGLMVTHIEKNGFLRVAPIGGVDPKTLIAQRFKVWIDKGKFIYGVGASIFIDIGAESKEEAEDMGVKIGTVITWDGRLERLGKHRFVSIAFDDRIAVYTILEVAKQLKDAKADVYFVATVQEEVGLRGARTSAFGIEPDYGFAIDVTIAADIPGTPEHKQVTHLGKGTAIKIMDRSVICHPTIVRWLEELAKKHEIPYQLEILLGGGTDAGAIHLTKAGVPTGALSVPARYIHSNTEVVDERDVDATVELMTKALENIHELKI
notes: as for B1
B6: TET2 (Pyrococcus horikoshii OT3; DEL122-122/DEL126-126) (protein)
chain: MEVRNMVDYELLKKVVEAPGVSGYEFLGIRDVVIEEIKDYVDEVKVDKLGNVIAHKKGEGPKVMIAAHMDQIGLMVTHIEKNGFLRVAPIGGVDPKTLIAQRFKVWIDKGKFIYGVGASVPHIQPEDRKKAPDWDQIFIDIGAESKEEAEDMGVKIGTVITWDGRLERLGKHRFVSIAFDDRIAVYTILEVAKQLKDAKADVYFVATVQEEVGLRGARTSAFGIEPDYGFAIDVTIAADIPGTPEHKQVTHLGKGTAIKIMDRSVICHPTIVRWLEELAKKHEIPYQLEILLGGGTDAGAIHLTKAGVPTGALSVPARYIHSNTEVVDERDVDATVELMTKALENIHELKI
notes: as for B1

Substrate: CC(C)C[C@H](N)C(=O)Nc1ccc([N+](=O)[O-])cc1
Assay: purified protein
Assay type: biochemical, Pyrococcus horikoshii
Conditions: pH 7.5 (20 mM Tris, 100 mM NaCl), 50 °C, 2.8% DMSO, 0.1-6.4 mM substrate
[1] = Δloop mutant, loop printed as shortened to a two-residue β-turn and as lacking residues 120-138
[2] = mutant printed as Δ(122,126), loop shortened by one residue on each side of H123

| Protein | Km | kcat | other results |
| --- | --- | --- | --- |
| B1 | 3.2 ± 0.1 mM | 14.1 ± 1.7 s⁻¹ | – |
| B2 | 17.0 ± 1.3 mM | 16.9 ± 3.6 s⁻¹ | – |
| B3 | 14.4 ± 0.6 mM | 26.6 ± 4.1 s⁻¹ | – |
| B4 | 13.8 ± 0.6 mM | 15.7 ± 2.7 s⁻¹ | – |
| B5 | – | – | Km [1]: 1.3 ± 0.1 mM; kcat [1]: 1.7 ± 1.0 s⁻¹ |
| B6 | – | – | Km [2]: 28.5 ± 2.3 mM; kcat [2]: 31.5 ± 8.1 s⁻¹ |
